# Measurements published in article PMC3065461, “A Transient Homotypic Interaction Model for the Influenza A Virus NS1 Protein Effector Domain” (PLoS ONE, 2011).
# B1: Alb/76 NS1 effector domain (ED), residues 73-230 (domain or fragment)
# chain: TDENLKIAIASSPAPRYITDMSIEEISREWYMLMPRQKITGGLMVKMDQAIMDKRITLKANFSVLFDQLETLVSLRAFTDDGAIVAEISPIPSMPGHSTEDVKNAIGILIGGLEWNDNSIRASENIQRFAWGIRDENGGPPLPPKQKRYMARRVESEV
# notes: also called Alb/76 ED; Alb/76 NS1 ED
# B2: PR8 NS1 effector domain (ED), wild type, residues 73-230 (domain or fragment)
# chain: SDEALKMTMASVPASRYLTDMTLEEMSRDWSMLIPKQKVAGPLCIRMDQAIMDKNIILKANFSVIFDRLETLILLRAFTEEGAIVGEISPLPSLPGHTAEDVKNAVGVLIGGLEWNDNTVRVSETLQRFAWRSSNENGRPPLTPKQKREMAGTIRSEV
# notes: also called PR8 ED; PR8 NS1 ED
# Target: the molecule itself
# Test: SEC; gel filtration of the purified EDs; data not shown
protein,measurement,value
B1,stoichiometry N,2
B2,stoichiometry N,2
